From paper PMC10329691, “The structural pathology for hypophosphatasia caused by malfunctional tissue non-specific alkaline phosphatase” (Nature Communications, 2023)

Tests used:
[1] = molecular target: the molecule itself; assay: SEC; Superdex 200 Increase 10/300 GL, 20 mM HEPES pH 7.5, 150 mM NaCl; purified TNAP alone
[2] = molecular target: the molecule itself; assay: crystal structure; crystals of hTNAP 18-500 grown at acidic pH (PEG3350, sodium acetate pH 5.0; about 2.9 Å) and at basic pH (PEG4000, Tris pH 8.0, MgCl2; about 3.2 Å)
[3] = molecular target: the molecule itself; assay: SEC-MALS; static light scattering, WTC-030S5 column, 150 mM NaCl, 20 mM HEPES pH 7.5, 0.5 mL/min
[4] = molecular target: T1, human tissue non-specific alkaline phosphatase, amino acids 18-500 (hTNAP^18–500) (human, UniProt P05186, N-glycosylation (asparagine residues, seen in the crystal structure)); assay: cryo-EM structure; hTNAP 18-500-scFv complex, 300 kV Titan Krios, C2 symmetry, 2.96 Å; details: both partners purified
T1 construct: human tissue non-specific alkaline phosphatase (ALPL gene), amino acids 18-500, the mature form with the GPI-anchor amidated residue Ser 501 removed; HA signal peptide at the N-terminus for secretion; TEV protease site before the Flag and His tags, no cleavage described; Dimer dominates in solution, with higher oligomers; octamer in the crystals; The same range was also made in Expi293F from …

B1: TNAP^T167M (active site mutant of hTNAP 18-500) (enzyme, human, UniProt P05186 18-500, looked up)
chain: LVPEKEKDPKYWRDQAQETLKYALELQKLNTNVAKNVIMFLGDGMGVSTVTAARILKGQLHHNPGEETRLEMDKFPFVALSKTYNTNAQVPDSAGTATAYLCGVKANEGTVGVSAATERSRCNTTQGNEVTSILRWAKDAGKSVGIVTTMRVNHATPSAAYAHSADRDWYSDNEMPPEALSQGCKDIAYQLMHNIRDIDVIMGGGRKYMYPKNKTDVEYESDEKARGTRLDGLDLVDTWKSFKPRYKHSHFIWNRTELLTLDPHNVDYLLGLFEPGDMQYELNRNNVTDPSLSEMVVVAIQILRKNPKGFFLLVEGGRIDHGHHEGKAKQALHEAVEMDRAIGQAGSLTSSEDTLTVVTADHSHVFTFGGYTPRGNSIFGLAPMLSDTDKKPFTAILYGNGPGYKVVGGERENVSMVDYAHNNYQAQSAVPLRHETHGGEDVAVFSKGPMAHLLHGVHEQNYVPHVMAYAACIGANLGHCAPA
notes: human tissue non-specific alkaline phosphatase, amino acids 18-500, with the hypophosphatasia mutation T167M; HA signal peptide at the N-terminus; PreScission site before the tags; also called active site mutant TNAP^T167M; source: Expi293F, transfected, purified from the supernatant (Nickel-chelating resin, SEC)
Question: Which “stoichiometry N” value [1] does the source give for B1 here?
Answer: 2

B2: human tissue non-specific alkaline phosphatase, amino acids 18-500 (hTNAP^18–500) (enzyme, UniProt P05186 18-500, looked up)
chain: LVPEKEKDPKYWRDQAQETLKYALELQKLNTNVAKNVIMFLGDGMGVSTVTAARILKGQLHHNPGEETRLEMDKFPFVALSKTYNTNAQVPDSAGTATAYLCGVKANEGTVGVSAATERSRCNTTQGNEVTSILRWAKDAGKSVGIVTTTRVNHATPSAAYAHSADRDWYSDNEMPPEALSQGCKDIAYQLMHNIRDIDVIMGGGRKYMYPKNKTDVEYESDEKARGTRLDGLDLVDTWKSFKPRYKHSHFIWNRTELLTLDPHNVDYLLGLFEPGDMQYELNRNNVTDPSLSEMVVVAIQILRKNPKGFFLLVEGGRIDHGHHEGKAKQALHEAVEMDRAIGQAGSLTSSEDTLTVVTADHSHVFTFGGYTPRGNSIFGLAPMLSDTDKKPFTAILYGNGPGYKVVGGERENVSMVDYAHNNYQAQSAVPLRHETHGGEDVAVFSKGPMAHLLHGVHEQNYVPHVMAYAACIGANLGHCAPA
modifications: N-glycosylation (asparagine residues, seen in the crystal structure)
notes: human tissue non-specific alkaline phosphatase (ALPL gene), amino acids 18-500, the mature form with the GPI-anchor amidated residue Ser 501 removed; HA signal peptide at the N-terminus for secretion; TEV protease site before the Flag and His tags, no cleavage described; Dimer dominates in solution, with higher oligomers; octamer in the crystals; The same range was also made in Expi293F from …
Question: For B2, which “stoichiometry N” value [2] is on record?
Answer: 8

Question: And the “stoichiometry N” value [3]?
Answer: 2

B3: TNAP^R450C (dimeric interface mutant of hTNAP 18-500) (enzyme, human, UniProt P05186 18-500, looked up)
chain: LVPEKEKDPKYWRDQAQETLKYALELQKLNTNVAKNVIMFLGDGMGVSTVTAARILKGQLHHNPGEETRLEMDKFPFVALSKTYNTNAQVPDSAGTATAYLCGVKANEGTVGVSAATERSRCNTTQGNEVTSILRWAKDAGKSVGIVTTTRVNHATPSAAYAHSADRDWYSDNEMPPEALSQGCKDIAYQLMHNIRDIDVIMGGGRKYMYPKNKTDVEYESDEKARGTRLDGLDLVDTWKSFKPRYKHSHFIWNRTELLTLDPHNVDYLLGLFEPGDMQYELNRNNVTDPSLSEMVVVAIQILRKNPKGFFLLVEGGRIDHGHHEGKAKQALHEAVEMDRAIGQAGSLTSSEDTLTVVTADHSHVFTFGGYTPRGNSIFGLAPMLSDTDKKPFTAILYGNGPGYKVVGGERENVSMVDYAHNNYQAQSAVPLCHETHGGEDVAVFSKGPMAHLLHGVHEQNYVPHVMAYAACIGANLGHCAPA
notes: human tissue non-specific alkaline phosphatase, amino acids 18-500, with the hypophosphatasia mutation R450C; HA signal peptide at the N-terminus; PreScission site before the tags; also called dimeric interface mutant TNAP^R450C; source: Expi293F, transfected, purified from the supernatant (Nickel-chelating resin, SEC)
Question: For B3, which “stoichiometry N” value [1] is on record?
Answer: 2

B4: scFv of the TNAP agonist antibody JTALP001 (scFv, V domains shown)
VH: QVQLVQSGAEVKKPGASVKVSCKASGYTFTSYGISWVRQAPGQGLEWMGWISAYNGNTNYAQKLQGRVTMTTDTSTSTAYMELRSLRSDDTAVYYCARDKGWNSEGSLEYWGQGTLVTVSS
VL: DIVMTQSPSSVSASVGDRVTITCRASQGISNWLGWYQQKPGKAPKLLIYGASSLQSGVPSRFSGSGSGTDFTLTISSLQPEDFATYFCQQAYSLPLTFGGGTKLEIK
notes: scFv selected from a human scFv phage library against hTNAP 18-500; The Fc fragment of JTALP001 was replaced by a His-tag; also called scFv fragment; scFv antibody; source: Expi293F, purified (Nickel-chelating resin)
Question: How did the “stoichiometry N” value [4] turn out when B4 was run?
Answer: 1 scFv per TNAP protomer
